Where no end group is shown, it is not given here.

Assay [1] has as its target T1, Pept 02 (GsMTx4 loop2-derived peptide) (Grammostola spatulata, not fully specified (bridges); printed as Trp-Lys-Cys-Asn-Pro-Asn-Asp-Asp-Lys-Cys; cysteine pairing not given here).
T1 chain: WKCNPNDDKC
Put plainly: inside-out patch clamp dose-response (Hill fit, -50 mV). A general note: The patch-clamp technique gives a direct electrical read-out from membranes.

Assay [2] addresses T2, GsMTx4 (Grammostola spatulata, UniProt Q7YT39, not fully specified).
T2 chain: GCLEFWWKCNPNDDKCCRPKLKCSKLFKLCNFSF
The description is as above.

B1: SAKcaC (stretch-activated BK channel) (protein)
chain: not shown
Consider B1, for which the figures for the dissociation constant Kd in assay [1] and in assay [2] were 23.8 nM and 47.2 nM, respectively.

What is called Kd is the concentration at which binding is half-saturated. Read a high Kd as weaker binding.
